Laboratory results published in article PMC7939381, “MMP activation–associated aminopeptidase N reveals a bivalent 14-3-3 binding motif” (The Journal of Biological Chemistry, 2020).
Primed or numbered codes have the meaning given here. Where no end group is shown, it is not given here. [ ]: non-standard residue; d: D form. The star is where a group is joined. FITC = O=C1OC2(c3ccc(O)cc3Oc3cc(O)ccc32)c2ccc(NC(=S)*)cc21; pT = C[C@@H](OP(=O)(O)O)[C@H](N)C(=O)O; pS = N[C@@H](COP(=O)(O)O)C(=O)O; PEG2″ = not defined here

T1: 14-3-3β/α, full length, N-terminally His6-tagged (human, UniProt P31946 1-246)
T1 construct: 14-3-3 beta/alpha, human, full length; also called His6-14-3-3β/α; source: E. coli BL21(DE3), purified (HisTrap, SEC); also in E. coli cell lysate (pulldown); not shown: His6, N-terminal, kept
T1 sequence (looked up): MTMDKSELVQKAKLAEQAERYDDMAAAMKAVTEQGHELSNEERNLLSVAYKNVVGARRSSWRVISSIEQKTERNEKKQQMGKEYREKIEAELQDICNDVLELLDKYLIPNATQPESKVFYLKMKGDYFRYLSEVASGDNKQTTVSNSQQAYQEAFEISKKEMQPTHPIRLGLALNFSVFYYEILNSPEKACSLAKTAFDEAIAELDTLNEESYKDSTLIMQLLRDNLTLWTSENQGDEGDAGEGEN

T2: 14-3-3ε, full length, N-terminally His6-tagged (human, UniProt P62258 1-255)
T2 construct: 14-3-3 epsilon, human, full length; source: E. coli BL21(DE3), purified (HisTrap, SEC)
T2 sequence (looked up): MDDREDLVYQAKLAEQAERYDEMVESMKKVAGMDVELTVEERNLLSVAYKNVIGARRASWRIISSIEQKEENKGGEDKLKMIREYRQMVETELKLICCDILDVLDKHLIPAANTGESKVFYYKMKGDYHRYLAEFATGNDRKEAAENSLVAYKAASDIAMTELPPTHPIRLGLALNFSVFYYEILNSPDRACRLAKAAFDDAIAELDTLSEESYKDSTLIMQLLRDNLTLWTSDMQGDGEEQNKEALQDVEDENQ

T3: 14-3-3γ, full length, N-terminally His6-tagged (human, UniProt P61981 1-247)
T3 construct: 14-3-3 gamma, human, full length; source: E. coli BL21(DE3), purified (HisTrap, SEC)
T3 sequence (looked up): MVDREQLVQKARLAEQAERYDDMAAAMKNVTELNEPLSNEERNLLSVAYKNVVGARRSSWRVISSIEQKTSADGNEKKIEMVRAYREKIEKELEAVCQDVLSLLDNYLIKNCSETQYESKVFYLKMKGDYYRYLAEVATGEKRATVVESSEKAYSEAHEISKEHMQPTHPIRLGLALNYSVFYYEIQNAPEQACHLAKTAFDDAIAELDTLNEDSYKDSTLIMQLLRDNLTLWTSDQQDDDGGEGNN

T4: 14-3-3σ, full length, N-terminally His6-tagged (human, UniProt P31947 1-248)
T4 construct: 14-3-3 sigma (stratifin), human, full length; no tag cleavage is described for the full-length proteins; also called stratifin; SFN; source: E. coli BL21(DE3), purified (HisTrap, SEC)
T4 sequence (looked up): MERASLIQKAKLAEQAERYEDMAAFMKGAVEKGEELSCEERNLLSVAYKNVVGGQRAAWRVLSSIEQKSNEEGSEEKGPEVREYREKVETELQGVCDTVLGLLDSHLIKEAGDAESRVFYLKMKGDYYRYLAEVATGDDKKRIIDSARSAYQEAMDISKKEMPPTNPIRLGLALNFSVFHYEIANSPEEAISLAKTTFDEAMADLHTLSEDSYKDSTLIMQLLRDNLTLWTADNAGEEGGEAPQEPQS

T5: 14-3-3ζ, full length, N-terminally His6-tagged (human, UniProt P63104 1-245)
T5 construct: 14-3-3 zeta, human, full length; source: E. coli BL21(DE3), purified (HisTrap, SEC)
T5 sequence (looked up): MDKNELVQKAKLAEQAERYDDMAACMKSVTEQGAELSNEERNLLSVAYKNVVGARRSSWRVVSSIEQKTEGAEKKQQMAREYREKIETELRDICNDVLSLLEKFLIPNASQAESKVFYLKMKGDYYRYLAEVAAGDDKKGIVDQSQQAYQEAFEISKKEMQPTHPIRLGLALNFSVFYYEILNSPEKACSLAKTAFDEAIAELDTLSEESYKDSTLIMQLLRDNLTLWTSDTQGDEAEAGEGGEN

T6: 14-3-3θ, full length, N-terminally His6-tagged (human, UniProt P27348 1-245)
T6 construct: 14-3-3 theta (printed as τ in the introduction, θ in the results), human, full length; also called 14-3-3τ; source: E. coli BL21(DE3), purified (HisTrap, SEC)
T6 sequence (looked up): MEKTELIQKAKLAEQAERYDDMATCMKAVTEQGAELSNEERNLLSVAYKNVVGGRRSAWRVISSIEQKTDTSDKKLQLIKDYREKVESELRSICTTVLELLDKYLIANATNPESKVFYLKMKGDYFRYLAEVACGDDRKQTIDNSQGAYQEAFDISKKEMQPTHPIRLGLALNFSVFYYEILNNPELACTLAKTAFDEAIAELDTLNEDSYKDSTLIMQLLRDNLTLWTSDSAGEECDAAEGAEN

B1: FITC-labeled peptide 1, APN 38–46 pSer43 (peptide)
peptide: {FITC-PEG2″}-NKNAN[pS]SPV
notes: aminopeptidase N (APN, CD13), human, residues 38-46; also called site 1; source: synthetic peptide (Fmoc SPPS, HPLC purified)
B2: peptide 1, APN 38–46 pSer43, as used in ITC (peptide)
peptide: NKNAN[pS]SPV
notes: aminopeptidase N (APN, CD13), human, residues 38-46; source: synthetic peptide (Fmoc SPPS, HPLC purified)
B3: acetylated (unlabeled) RAF1 peptide (peptide)
peptide: Ac-RQRST[pS]TPN
notes: source: synthetic peptide (Fmoc SPPS, HPLC purified)
B4: peptide 11, APN 36–73 pSer43 pThr63, as used in ITC and co-crystallisation (peptide, UniProt P15144 36-73, looked up)
peptide: EKNKNAN[pS]SPVASTTPSASATTNPASA[pT]TLDQSKAWNR
notes: aminopeptidase N (APN, CD13), human, residues 36-73; also called bis-phosphorylated peptide 11; source: synthetic peptide (Fmoc SPPS, HPLC purified)
B5: 14-3-3η, full length, N-terminally His6-tagged (natural protein, human, UniProt Q04917 1-246, looked up)
chain: MGDREQLLQRARLAEQAERYDDMASAMKAVTELNEPLSNEDRNLLSVAYKNVVGARRSSWRVISSIEQKTMADGNEKKLEKVKAYREKIEKELETVCNDVLSLLDKFLIKNCNDFQYESKVFYLKMKGDYYRYLAEVASGEKKNSVVEASEAAYKEAFEISKEQMQPTHPIRLGLALNFSVFYYEIQNAPEQACLLAKQAFDDAIAELDTLNEDSYKDSTLIMQLLRDNLTLWTSDQQDEEAGEGN
notes: 14-3-3 eta, human, full length; also called His6-14-3-3η; source: E. coli BL21(DE3), purified (HisTrap, SEC); also in E. coli cell lysate (pulldown); not shown: His6, N-terminal, kept
B6: 14-3-3σ ΔC (aa 1–231) (domain or fragment, human, UniProt P31947 1-231, looked up)
chain: MERASLIQKAKLAEQAERYEDMAAFMKGAVEKGEELSCEERNLLSVAYKNVVGGQRAAWRVLSSIEQKSNEEGSEEKGPEVREYREKVETELQGVCDTVLGLLDSHLIKEAGDAESRVFYLKMKGDYYRYLAEVATGDDKKRIIDSARSAYQEAMDISKKEMPPTNPIRLGLALNFSVFHYEIANSPEEAISLAKTTFDEAMADLHTLSEDSYKDSTLIMQLLRDNLTLWT
notes: 14-3-3 sigma (stratifin), human, C-terminally truncated, residues 1-231; One monomer per asymmetric unit; the biological dimer is generated by crystallographic symmetry; also called 14-3-3 ΔC aa 1–231; source: E. coli BL21(DE3), purified (HisTrap, TEV cleavage, reverse HisTrap, SEC); not shown: His6, N-terminal, cleaved
B7: acetylated (label-free, unlabeled) peptide 1, APN 38–46 pSer43 (peptide)
peptide: Ac-NKNAN[pS]SPV
notes: aminopeptidase N (APN, CD13), human, residues 38-46; also called acetylated peptide 1; label-free peptide 1; source: synthetic peptide (Fmoc SPPS, HPLC purified)

What was measured:
[1] = target: T1, 14-3-3β/α, full length, N-terminally …; assay: fluorescence polarisation; direct binding: dilution series of 14-3-3 protein added to FITC-labeled peptide (30 nM stock, 5 µl in 15 µl); 10 mM HEPES pH 7.4, 150 mM NaCl, 2 mM DTT, 0.01% Tween 20; 60 min at room temperature, read at 25 °C; four-parameter fit; conditions: both partners purified
[2] = target: B5; assay: as above; conditions: both partners purified
[3] = target: T2, 14-3-3ε, full length, N-terminally …; assay: as above; conditions: both partners purified
[4] = target: T3, 14-3-3γ, full length, N-terminally …; assay: as above; conditions: both partners purified
[5] = target: T4, 14-3-3σ, full length, N-terminally …; assay: as above; conditions: both partners purified
[6] = target: T5, 14-3-3ζ, full length, N-terminally …; assay: as above; conditions: both partners purified
[7] = target: T6, 14-3-3θ, full length, N-terminally …; assay: as above; conditions: both partners purified
[8] = target: B5; assay: ITC; 14-3-3η (500 µM; 250 µM for peptide 11) titrated into peptide (50 µM; 12.5 µM for peptide 11), 18 injections; 50 mM HEPES pH 7.4, 250 mM NaCl, 20 mM MgCl2; 25 °C; conditions: both partners purified
[9] = target: T4, 14-3-3σ, full length, N-terminally …; assay: fluorescence polarisation; competition: dilution series of acetylated peptide (starting concentration 4000 µM) added to a premixed complex of 14-3-3σ (3 µM) and FITC-labeled RAF1 tracer (30 nM); 10 mM HEPES pH 7.4, 150 mM NaCl, 2 mM DTT, 0.01% Tween 20; 25 °C; conditions: both partners purified
14-3-3σ ΔC (aa 1–231) = target: B6; assay: crystal structure; 14-3-3σ ΔC co-crystallised with peptide 11; sitting drops, 100 mM HEPES pH 7.7, 0.19 M CaCl2, 5% glycerol, 27% PEG400; space group C222(1), 1.20 Å; also solved in P1; conditions: both partners purified
[10] = target: B2; assay: ITC; 14-3-3η (500 µM; 250 µM for peptide 11) titrated into peptide (50 µM; 12.5 µM for peptide 11), 18 injections; 50 mM HEPES pH 7.4, 250 mM NaCl, 20 mM MgCl2; 25 °C; conditions: both partners purified
[11] = target: the molecule itself; assay: crystal structure; 14-3-3σ ΔC (12.5 g/l) mixed 1:2 with peptide 1; sitting drops, 100 mM HEPES pH 7.3, 0.19 M CaCl2, 5% glycerol, 28% PEG400, 4 °C; space group C222(1), 1.60 Å

NPASA[pT]TLD [peptide 15, monophosphorylated APN 9-mer pThr63 (site 2)]
Kd [1]: > 40 µM | Kd [2]: > 40 µM

TTNPASATT (also: one phosphorylated Ser/Thr within Ser61–Thr64) [peptide 14, monophosphorylated APN 9-mer (noncanonical site of peptide 10)]
Kd [1]: > 40 µM | Kd [2]: > 40 µM

B1
binding result [3]: binds | binding result [4]: binds | Kd [2]: 0.32 ± 0.04 µM | Kd [5]: 1.7 ± 0.1 µM | binding result [6]: binds | binding result [7]: binds

B2
Kd [8]: 2.18 µM

B3
IC50 [9]: 13.4 ± 0.7 µM

B4
binding result (14-3-3σ ΔC (aa 1–231)): binds

B5
stoichiometry N [10]: 1.05

B6
binding result [11]: binds

B7
IC50 [9]: 18.8 ± 1.5 µM

PASATTLDQ (also: one phosphorylated Ser/Thr within Ser61–Thr64) [peptide 16, monophosphorylated APN 9-mer (noncanonical site of peptide 12)]
Kd [1]: > 40 µM | Kd [2]: > 40 µM
